In the supplement of paper PMC9170038:

Tested on: MS2 coat protein
Experiment: apparent KD of MS2 coat protein; designed switch direction (-1 OFF switch, 1 ON switch): -1; higher = weaker reporter binding
Summary of the method: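 Designed RNA switches sharing common flanks were transcribed on Illumina chips by stalled E. coli RNA polymerase. They were titrated with SNAP-549-labelled MS2 coat protein, from 0.7 or 1.5 nM doubling to 3 µM, in Tris-HCl pH 7.5 buffer with KCl, MgCl2, BSA, DTT, tRNA and Tween-20. Titrations ran without input, with 200 uM small-molecule ligand, or with an oligonucleotide input. The apparent KD of each design is the median over its clusters, after curve-fitting of normalised cluster fluorescence.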

[1] = Eterna round: R95, input ligand: FMN 200 uM
[2] = Eterna round: R95, input ligand: microRNA oligo, concentration not stated
[3] = Eterna round: R95, input ligand: none
[4] = input ligand: microRNA oligo, concentration not stated

Sequence	apparent KD of MS2 coat protein [1]	apparent KD of MS2 coat protein [2]	apparent KD of MS2 coat protein [3]	apparent KD of MS2 coat protein (input ligand: FMN 200 uM)	apparent KD of MS2 coat protein [4]	apparent KD of MS2 coat protein (input ligand: none)
UUACGGCGGAUCGUGGCUUUUUGCUCGUCUUGUGCUACAACAUGAGGAUCACCCAUGUAGAGGUGAUCCGUUGUAUU [Grok-var2-19 mod JAL] (puzzle: Sensor v3, turn-off variant 2)	92.4 nM	22.3 nM	120 nM			
AAAUUAAGUGUGAGGAUAUGCUGGUCCUUGGAUCAGCAGAAGGCACAUGAGGAUCACCCAUGUAAUAUAUUUAA [Mat - Exclusion 4 - JL Mod - D49] (puzzle: Brourd's mod of Exclusion 4)	439 nM	74.2 nM	144 nM			
AAUAACAGAGGAUAUACUGUUUUAUGUGUUUGUUAUUUUGAACAUGAGGAUCACCCAUGUAGAAGGCUGAUUAA [JMF 50] (puzzle: Exclusion 2)		37.4 nM				
AACCUGAGGCAAAGCUUUAGGUGUACAUGAGGAUCACCCAUGUAGGAUAUGGUAAGCAAAGCUUACCAGAAGGACAUAAUGAUA [Mat - Exclusion NG 3 - Mod of JL - D49] (Eterna round: R96, puzzle: Exclusion NG 3)				86.5 nM	37.6 nM	59.4 nM
UUUUAACAUGAGGAUCACCCAUGUGAGGAUAUCGAAAUUUAUAUUAAUAUUAUUAUUUCGAGAAGGCACAUUUU [JMF 41] (puzzle: Exclusion 1)		155 nM				
GAAAACGAAGAGGAUAUUUGAUAUCAAAGCUUCAAAGAAGGCUUCACAUGAGGAUCACCCAUGUGAUCUUCAAU [Mat - Exclusion 6 - JL Mod - D15] (Eterna round: R97, puzzle: Exclusion 6)				212 nM		24.5 nM
GUUAGUUAAGGAUAUACUGGGAGCUGCGGCGUCUCGCCGCAACAUGAGGAUCACCCAUGUAGAAGGUGACCAUU [JL ViennaUCT Enbibi mod 5] (puzzle: Exclusion 2)		221 nM				
GUGUUUCGUGUAGGAUAUGUUUGUGGGUCGCGGGCAGAAGGACAUGAGGAUCACCCAUGUUGCGGGUUCGGUUUGUGCGGGCGC [-22, -20 kcal and 14% A] (Eterna round: R96, puzzle: Exclusion NG 1)				23.6 nM	17.1 nM	22.3 nM
UUGUUACGAUUAGGAUAUUAUUGAUUGGACAGUAUGAUUUACAUGAGGAUCACCCAUGUUACUUUUAAGAAGGAAUCGUAUUAU [JR_ExcNG2_Sub090] (Eterna round: R96, puzzle: Exclusion NG 2)					14.8 nM	
AGUGUGUGGCAGGAUAUUCUGUUGGUUCGGACAGAAGAAGGGUCUACAUGAGGAUCACCCAUGUAAGCGGUUGA [Ex6 #34] (Eterna round: R97, puzzle: Exclusion 6)				173 nM		264 nM
UAUAUAUAGUAAGGAUAUGUAUAUAUUUUAUAGACAGAAGGUACUGACAUGAGGAUCACCCAUGUUUUAGUGUGGGCAUGUAGA [JMF's solution 72] (Eterna round: R96, puzzle: Exclusion NG 1)				105 nM	50.4 nM	50.5 nM
CUGCUGGAGCGGCGCUUUGGUCGUACAUGAGGAUCACCCAUGUAGGAUAUGGUAAAAUUUGCCUGCUAGAAGGAUAGAGUGGUC [salish99_ExNG3_r04_616] (Eterna round: R96, puzzle: Exclusion NG 3)				124 nM	70 nM	91.6 nM
AAGAGUGCAGGAUAUACGUGAUGGAGUAGGAUGAGAGAAGGACAUGAGGAUCACCCAUGUAGAAGGGCAGAGAG [JR_Exclu2_Sub059] (puzzle: Exclusion 2)	28.7 nM	43.4 nM	31 nM			
UUUAUGUCAGGAUAUGAGGAGUAGAACAAUAGUACUACUCCUCAGAAGGGACAUGAGGAUCACCCAUGUUCCUC [Fiskers Ex 4 Super stable 44 mod 25] (puzzle: Exclusion 4)		18.5 nM				
CCGGAAGUACAGGAUAUCGUAUCGGAAACGAUACGAGAAGGGUAUACAUGAGGAUCACCCAUGUGUCCUACCGG [Fiskers Ex 6 - 27] (puzzle: Exclusion 6)		23.3 nM				
GUCCGACAUGAGGAUCACCCAUGUGAGGAUAUGCGAUUAGCUGCUAGGUAGUUAGUAUGUAGAAGGUGCAUGAA [EX1 #75] (Eterna round: R97, puzzle: Exclusion 1)				18.8 nM		17.5 nM
GCGGAUUAUGUAGGAUAUCGGUCAGUUUCUGAUCGAGAAGGACAUGAGGAUCACCCAUGUAAAUUCCUCGCUUUGUGAGGCCGC [JL ENG1 3.64] (Eterna round: R96, puzzle: Exclusion NG 1)				31.5 nM	15.6 nM	17.8 nM

Sequence	apparent KD of MS2 coat protein [1]	apparent KD of MS2 coat protein [2]	apparent KD of MS2 coat protein [3]	apparent KD of MS2 coat protein (input ligand: FMN 200 uM)	apparent KD of MS2 coat protein [4]	apparent KD of MS2 coat protein (input ligand: none)
ACAAGCUUUUUGCUCGGGUACAUGAGGAUCACCCAUGUUUGGGUUUAUUGAGGUUGUGUGGGCGUGCGCUGCAGGUU [JR_SV3TOV1_Sub075] (puzzle: Sensor v3, turn-off variant 1)	87.7 nM	243 nM	118 nM			
CCAGCGUAUGUGAGGAUAUGCUGGUCCUUGGAUCAGCAGAAGGCACAUGAGGAUCACCCAUGUGGAAACGUUGG [JL bmx4 3.41] (puzzle: Brourd's mod of Exclusion 4)		16.4 nM				
UAUAUAUAGUAAGGAUAUGUAUUAAUUAUAUAAACAGAAGGUACUGACAUGAGGAUCACCCAUGUUUUAGUGUGGGCAUGUAGA [JMF's solution 80] (Eterna round: R96, puzzle: Exclusion NG 1)					65.8 nM	
UACCGGCGGACCGAAGCUUUUUGCUUGUUUUAUACUACAACAUGAGGAUCACCCAUGUGGUGGUGGUCCGUUGUAGU [JL ViennaUCT Bitein mod 1] (puzzle: Sensor v3, turn-off variant 2)	63.9 nM	16.7 nM	58.6 nM			
GGAUCACAUGUGAGGAUAUGCAGGUCCUUGGAUCUGCAGAAGGCACAUGAGGAUCACCCAUGUGAUCAAGAUCC [Mat - Exclusion 4 - Eli Mod - D49] (Eterna round: R97, puzzle: Brourd's mod of Exclusion 4)				47.4 nM		61.2 nM
GUUCCGGGAGGAUAUACAUGAGGAUCACCCAUGUUCACCAGCUUUAGCUACGACCUAUGUAGAAGGUCUGGAGA [Eternabot (L1) Solution 36] (Eterna round: R97, puzzle: Exclusion 3)				46.7 nM		39.7 nM
AGAUGGCGAGGAUAUACAUGAGGAUCACCCAUGUGAAGAUAAAGAGUGAGGAAGAAAAGUAGAAGGCGCUGUCA [Mat - Exclusion 3 - Mod of Salish D28] (Eterna round: R96, puzzle: Exclusion 3)					103 nM	
GUACUGACAGGAUAUACAUGAGGAUCACCCAUGUCCUUAAGCUGACAAAAGUCAGCAAGUAGAAGGGUCUGUAC [Omei Ex3 Model Bachelor's Dilema v1] (Eterna round: R97, puzzle: Exclusion 3)				498 nM		79.4 nM
AAAUAAUAGAUAAAAUAAUACAUGAGGAUCACCCAUGUGCGAUGUUGAGGGUGAUACAGGCUUUUUGCUCGUCUUAU (puzzle: Sensor v3, turn-off variant 1)	177 nM	20.5 nM	67.9 nM			
UUGCAGUCGUCAGGAUAUAGUAUUACGGCCAUUUUUUUUUUCAUACAUGAGGAUCACCCAUGUCGCUAGAAGGGAUUAUCGAUU [salish99_ExNG2_r04_103] (Eterna round: R96, puzzle: Exclusion NG 2)				71 nM	57.1 nM	67 nM
CUCGUGCAGCAAAGCUGUACGAGUACAUGAGGAUCACCCAUGUAGGAUAUGGUACGCAAAGCGUGCUAGAAGGAUAUGUGAAGG [Mat - Exclusion NG 3 - Mod of JL - D88] (Eterna round: R96, puzzle: Exclusion NG 3)				49.4 nM	36.2 nM	51.5 nM
GCAGCUGCUCUAGGAUAUAUUUUAGCACAUGAGGAUCACCCAUGUGGGACCACAACAGCGCAAGAAUAGAAGGAGACAGCAGUA [Eternabot solution 32] (Eterna round: R96, puzzle: Exclusion NG 2)				506 nM	125 nM	129 nM
AGAAAUGCCCAUGGCCGCAAGCCUUUUGCUUGUCUUACCACAUGAGGAUCACCCAUGUGACAUGGGCUCCUGAUAAU [Zace] (puzzle: Sensor v3, turn-off variant 2)	12.6 nM	10.4 nM	11 nM			
CUCCGCCGCAGAGGAUAUGGAUGUCGGAGACAUGAGGAUCACCCAUGUAUCCUGUCGAUGAGUACCCAGAAGGUUGUCACGCAU [Eternabot solution 49] (Eterna round: R96, puzzle: Exclusion NG 2)				26.4 nM	26 nM	26.1 nM
UCGAUGUGAGGAUAUAUUUUUUUUUUUCCUUAUGUUUUAUAACUUGAGGAUCACCCAAGUAGAAGGCGCUACGU [JR_Ex2_Sub063] (Eterna round: R97, puzzle: Exclusion 2)				70.6 nM		136 nM
CUUUCGUGAGGAUAUCAGUAGUAAUAAAAUAAAAUUACUACUGAGAAGGCACAUGAGGAUCACCCAUGUUCCUC [salish99_ex3_r3_098] (puzzle: Exclusion 4)		23.5 nM				
UCAUAACAUGAGGAUCACCCAUGUGAGGAUAUGAUACUAUGUACUUCGGUACAUAGUAUCAGAAGGCACAUACU [Ex1-3: 11] (puzzle: Exclusion 1)		88.9 nM				
